Square brackets hold non-standard residues; d marks the D form. 1Nal = N[C@@H](Cc1cccc2ccccc12)C(=O)O; Tic = O=C(O)[C@@H]1Cc2ccccc2CN1; Cit = NC(=O)NCCC[C@H](N)C(=O)O
Target: CGRP1 receptor (CRLR/RAMP1 complex) of human neuroblastoma SK-N-MC cells (human, UniProt Q16602 23-461; O60894 27-148)
Assay: cell-based or functional assay

Sequence of CGRP1 receptor (CRLR/RAMP1 complex) of human neuroblastoma SK-N-MC cells (Q16602 23-461, chain 1 of 2): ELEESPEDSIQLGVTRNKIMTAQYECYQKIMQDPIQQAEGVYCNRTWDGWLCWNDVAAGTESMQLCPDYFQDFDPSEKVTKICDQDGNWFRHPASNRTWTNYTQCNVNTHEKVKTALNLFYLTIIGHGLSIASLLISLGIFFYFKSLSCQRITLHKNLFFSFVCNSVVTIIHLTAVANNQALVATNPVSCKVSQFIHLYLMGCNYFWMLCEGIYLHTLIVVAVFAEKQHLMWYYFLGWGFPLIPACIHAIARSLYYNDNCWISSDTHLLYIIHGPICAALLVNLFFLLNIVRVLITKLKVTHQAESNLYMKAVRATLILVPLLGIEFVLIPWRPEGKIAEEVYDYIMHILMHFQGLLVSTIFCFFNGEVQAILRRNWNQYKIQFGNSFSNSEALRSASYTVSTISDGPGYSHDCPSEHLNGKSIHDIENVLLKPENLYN
Sequence of CGRP1 receptor (CRLR/RAMP1 complex) of human neuroblastoma SK-N-MC cells (O60894 27-148, chain 2 of 2): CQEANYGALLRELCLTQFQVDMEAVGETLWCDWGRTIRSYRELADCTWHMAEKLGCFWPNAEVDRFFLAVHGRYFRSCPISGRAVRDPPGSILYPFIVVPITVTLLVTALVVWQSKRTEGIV

Binder | Peptide IC50 [nM] | PEG-peptide IC50 [nM]
WVTHXLAGLLSXSGGVVXKNFVXTDVGXFAX (Ac-WVTH[Cit]LAGLLS[Cit]SGGVV[hArg]KNFV[Oic]TDVG[Oic]FA[2-Nal]-NH2) [SEQ ID NO 948] | 2.57 | 
WVTHXLAGLLSXSGGVVXKNFVXTDVGPXAX (Ac-WVTH[Cit]LAGLLS[Cit]SGGVV[hArg]KNFV[Oic]TDVGP[1-Nal]A[2-Nal]-NH2) [SEQ ID NO 949] | 2.73 | 
WVTHXLAGLLSXSGGVVXKNFVXTDVGPXAF (Ac-WVTH[Cit]LAGLLS[Cit]SGGVV[hArg]KNFV[Oic]TDVGP[Bip]AF-NH2) [SEQ ID NO 950] | 3.85 | 
WVTHXLAGLLSXSGGVVXKNFVXTDVGPFAX (Ac-WVTH[Cit]LAGLLS[Cit]SGGVV[hArg]KNFV[Oic]TDVGPFA[2-Nal]-NH2) [SEQ ID NO 951] | 3.22 | 
WVTHXLAGLLSXSGGVVXKNXVXTDVGPXAF (Ac-WVTH[Cit]LAGLLS[Cit]SGGVV[hArg]KN[pI-Phe]V[Oic]TDVGP[pI-Phe]AF-NH2) [SEQ ID NO 952] | 2.34 | 
WVTHXLAGLLSXSGGVVXKNXVPTDVGXFAX (Ac-WVTH[Cit]LAGLLS[Cit]SGGVV[hArg]KN[2-Nal]VPTDVG[Oic]FA[2-Nal]-NH2) [SEQ ID NO 954] | 3.45 | 
WVTHXLAGLLSXSGGVVXKNXVXTDVGXFAX (Ac-WVTH[Cit]LAGLLS[Cit]SGGVV[hArg]KN[2-Nal]V[Oic]TDVG[Oic]FA[2-Nal]-NH2) [SEQ ID NO 955] | 3.57 | 
Ac-WVTH[Cit]LAGLLS[Cit]SGGVVRKNFVPTDVG[Tic]FAF-NH2 [SEQ ID NO 956] | 3.02 | 
Ac-WVTH[Cit]LAGLLS[Cit]SGGVVRKNFVPTDVG[Tic]FAF-NH2 [SEQ ID NO 957] | 4.32 | 
WVTHXLAGLLSXSGGVVXKNFVPTDVGPXAF (Ac-WVTH[Cit]LAGLLS[Cit]SGGVV[hArg]KNFVPTDVGP[1-Nal]AF-NH2) [SEQ ID NO 960] | 2.24 | 
WVTHXLAGLLSXSGGVVRKNFVPTDVGPXAF (Ac-WVTH[Cit]LAGLLS[Cit]SGGVVRKNFVPTDVGP[Tic]AF-NH2) [SEQ ID NO 962] | 10.1 | 
Ac-WVTHRLAGLLSQSGGVVRKNFVPTDVGPFAF-NH2 [SEQ ID NO 856] | 0.47 | 
Ac-WVTHRLAGLLSQSGGVVRKNFVPTDVGPFAF-NH2 (also: PEG-conjugated, in most cases at Lys25) [PEG-peptide of SEQ ID NO 856] |  | 0.46
Ac-WVTHQLAGLLSQSGGVVRKNFVPTDVGPFAF-NH2 [SEQ ID NO 857] | 0.53 | 
Ac-WVTHQLAGLLSQSGGVVRKNFVPTDVGPFAF-NH2 (also: PEG-conjugated, in most cases at Lys25) [PEG-peptide of SEQ ID NO 857] |  | 6.21
Ac-WVTHRLAGLLPRSGGVVRKNFVPTDVGPFAF-NH2 [SEQ ID NO 858] | 1.3 | 
Ac-WVTHRLAGLLPRSGGVVRKNFVPTDVGPFAF-NH2 (also: PEG-conjugated, in most cases at Lys25) [PEG-peptide of SEQ ID NO 858] |  | 5
Ac-WVTHRLAGLASRPGGVVRKNFVPTDVGPFAF-NH2 [SEQ ID NO 859] | 1.41 | 
Ac-WVTHRLAGLASRPGGVVRKNFVPTDVGPFAF-NH2 (also: PEG-conjugated, in most cases at Lys25) [PEG-peptide of SEQ ID NO 859] |  | 60.5
Ac-WVTHRLAGLLSRPGGVVRKNFVPTDVGPFAF-NH2 [SEQ ID NO 860] | 1.42 | 

Binder | Peptide IC50 [nM] | PEG-peptide IC50 [nM]
Ac-WVTHRLAGLLSRPGGVVRKNFVPTDVGPFAF-NH2 (also: PEG-conjugated, in most cases at Lys25) [PEG-peptide of SEQ ID NO 860] |  | 16.7
WVTHXLAGLLSRSGGVVRKNFVPTDVGPFAF (Ac-WVTH[Cit]LAGLLSRSGGVVRKNFVPTDVGPFAF-NH2) [SEQ ID NO 861] | 0.57 | 
WVTHXLAGLLSRSGGVVRKNFVPTDVGPFAF (Ac-WVTH[Cit]LAGLLSRSGGVVRKNFVPTDVGPFAF-NH2; PEG-conjugated (Table 2C: in most cases at Lys^25)) [PEG-peptide of SEQ ID NO 861] |  | 2.08
WVTHRLAGLLSXSGGVVRKNFVPTDVGPFAF (Ac-WVTHRLAGLLS[Cit]SGGVVRKNFVPTDVGPFAF-NH2) [SEQ ID NO 862] | 0.58 | 
WVTHRLAGLLSXSGGVVRKNFVPTDVGPFAF (Ac-WVTHRLAGLLS[Cit]SGGVVRKNFVPTDVGPFAF-NH2; PEG-conjugated (Table 2C: in most cases at Lys^25)) [PEG-peptide of SEQ ID NO 862] |  | 0.96
WVTHRLAGLLSXSGGVVRKNFVPTDVGPFAF (Ac-WVTHRLAGLLS[hArg]SGGVVRKNFVPTDVGPFAF-NH2) [SEQ ID NO 864] | 0.57 | 
WVTHRLAGLLSXSGGVVRKNFVPTDVGPFAF (Ac-WVTHRLAGLLS[hArg]SGGVVRKNFVPTDVGPFAF-NH2; PEG-conjugated (Table 2C: in most cases at Lys^25)) [PEG-peptide of SEQ ID NO 864] |  | 0.33
WVTHXLAGLLSRSGGVVRKNFVPTDVGPFAF (Ac-WVTH[hArg]LAGLLSRSGGVVRKNFVPTDVGPFAF-NH2) [SEQ ID NO 865] | 0.44 | 
WVTHXLAGLLSRSGGVVRKNFVPTDVGPFAF (Ac-WVTH[hArg]LAGLLSRSGGVVRKNFVPTDVGPFAF-NH2; PEG-conjugated (Table 2C: in most cases at Lys^25)) [PEG-peptide of SEQ ID NO 865] |  | 0.36
WVTHXLAGLLSXSGGVVRKNFVPTDVGPFAF (Ac-WVTH[hArg]LAGLLS[hArg]SGGVVRKNFVPTDVGPFAF-NH2) [SEQ ID NO 866] | 2.1 | 
WVTHXLAGLLSXSGGVVRKNFVPTDVGPFAF (Ac-WVTH[hArg]LAGLLS[hArg]SGGVVRKNFVPTDVGPFAF-NH2; PEG-conjugated (Table 2C: in most cases at Lys^25)) [PEG-peptide of SEQ ID NO 866] |  | 0.37
Ac-WVTH[Cit]LAGLLSRPGGVVRKNFVPTDVGPFAF-NH2 (SMILES CC(=O)N[C@@H](Cc1c[nH]c2ccccc12)C(=O)N[C@H](C(=O)N[C@H](C(=O)N[C@@H](Cc1c[nH]cn1)C(=O)N[C@@H](CCCNC(N)=O)C(=O)N[C@@H](CC(C)C)C(=O)N[C@@H](C)C(=O)NCC(=O)N[C@@H](CC(C)C)C(=O)N[C@@H](CC(C)C)C(=O)N[C@@H](CO)C(=O)N[C@@H](CCCNC(=N)N)C(=O)N1CCC[C@H]1C(=O)NCC(=O)NCC(=O)N[C@H](C(=O)N[C@H](C(=O)N[C@@H](CCCNC(=N)N)C(=O)N[C@@H](CCCCN)C(=O)N[C@@H](CC(N)=O)C(=O)N[C@@H](Cc1ccccc1)C(=O)N[C@H](C(=O)N1CCC[C@H]1C(=O)N[C@H](C(=O)N[C@@H](CC(=O)O)C(=O)N[C@H](C(=O)NCC(=O)N1CCC[C@H]1C(=O)N[C@@H](Cc1ccccc1)C(=O)N[C@@H](C)C(=O)N[C@@H](Cc1ccccc1)C(N)=O)C(C)C)[C@@H](C)O)C(C)C)C(C)C)C(C)C)[C@@H](C)O)C(C)C) [SEQ ID NO 868] | 3 | 
Ac-WVTH[Cit]LAGLLSRPGGVVRKNFVPTDVGPFAF-NH2 (also: PEG-conjugated, in most cases at Lys25) [PEG-peptide of SEQ ID NO 868] |  | 108
Ac-WVTH[Cit]LAGLASRPGGVVRKNFVPTDVGPFAF-NH2 (SMILES CC(=O)N[C@@H](Cc1c[nH]c2ccccc12)C(=O)N[C@H](C(=O)N[C@H](C(=O)N[C@@H](Cc1c[nH]cn1)C(=O)N[C@@H](CCCNC(N)=O)C(=O)N[C@@H](CC(C)C)C(=O)N[C@@H](C)C(=O)NCC(=O)N[C@@H](CC(C)C)C(=O)N[C@@H](C)C(=O)N[C@@H](CO)C(=O)N[C@@H](CCCNC(=N)N)C(=O)N1CCC[C@H]1C(=O)NCC(=O)NCC(=O)N[C@H](C(=O)N[C@H](C(=O)N[C@@H](CCCNC(=N)N)C(=O)N[C@@H](CCCCN)C(=O)N[C@@H](CC(N)=O)C(=O)N[C@@H](Cc1ccccc1)C(=O)N[C@H](C(=O)N1CCC[C@H]1C(=O)N[C@H](C(=O)N[C@@H](CC(=O)O)C(=O)N[C@H](C(=O)NCC(=O)N1CCC[C@H]1C(=O)N[C@@H](Cc1ccccc1)C(=O)N[C@@H](C)C(=O)N[C@@H](Cc1ccccc1)C(N)=O)C(C)C)[C@@H](C)O)C(C)C)C(C)C)C(C)C)[C@@H](C)O)C(C)C) [SEQ ID NO 869] | 6.19 | 
Ac-WVTH[Cit]LAGLASRPGGVVRKNFVPTDVGPFAF-NH2 (also: PEG-conjugated, in most cases at Lys25) [PEG-peptide of SEQ ID NO 869] |  | 565
Ac-WVTH[Cit]LAGLAS[Cit]SGGVVRKNFVPTDVGPFAF-NH2 [SEQ ID NO 870] | 16.1 | 
Ac-WVTH[Cit]LAGLAS[Cit]SGGVVRKNFVPTDVGPFAF-NH2 (also: PEG-conjugated, in most cases at Lys25) [PEG-peptide of SEQ ID NO 870] |  | > 1000
WVTHXLAGLLSXSGGVVXKNFVPTDVGPFAF (Ac-WVTH[Cit]LAGLLS[Cit]SGGVV[hArg]KNFVPTDVGPFAF-NH2) [SEQ ID NO 871] | 0.41 | 
WVTHXLAGLLSXSGGVVXKNFVPTDVGPFAF (Ac-WVTH[Cit]LAGLLS[Cit]SGGVV[hArg]KNFVPTDVGPFAF-NH2; PEG-conjugated (Table 2C: in most cases at Lys^25)) [PEG-peptide of SEQ ID NO 871] |  | 3.22
Ac-[1Nal]VTH[Cit]LAGLLS[Cit]SGGVVRKNFVPTDVGPFAF-NH2 (SMILES CC(=O)N[C@@H](Cc1cccc2ccccc12)C(=O)N[C@H](C(=O)N[C@H](C(=O)N[C@@H](Cc1c[nH]cn1)C(=O)N[C@@H](CCCNC(N)=O)C(=O)N[C@@H](CC(C)C)C(=O)N[C@@H](C)C(=O)NCC(=O)N[C@@H](CC(C)C)C(=O)N[C@@H](CC(C)C)C(=O)N[C@@H](CO)C(=O)N[C@@H](CCCNC(N)=O)C(=O)N[C@@H](CO)C(=O)NCC(=O)NCC(=O)N[C@H](C(=O)N[C@H](C(=O)N[C@@H](CCCNC(=N)N)C(=O)N[C@@H](CCCCN)C(=O)N[C@@H](CC(N)=O)C(=O)N[C@@H](Cc1ccccc1)C(=O)N[C@H](C(=O)N1CCC[C@H]1C(=O)N[C@H](C(=O)N[C@@H](CC(=O)O)C(=O)N[C@H](C(=O)NCC(=O)N1CCC[C@H]1C(=O)N[C@@H](Cc1ccccc1)C(=O)N[C@@H](C)C(=O)N[C@@H](Cc1ccccc1)C(N)=O)C(C)C)[C@@H](C)O)C(C)C)C(C)C)C(C)C)[C@@H](C)O)C(C)C) [SEQ ID NO 872] | 1.6 | 

Source: US20080020978A1 (Amgen, published 2008)
